From IntAct's records for PubMed 24141787

B1: Partner and localizer of BRCA2 (Homo sapiens), Q86YC2 (parent)
chain: MDEPPGKPLSCEEKEKLKEKLAFLKREYSKTLARLQRAQRAEKIKHSIKKTVEEQDCLSQQDLSPQLKHSEPKNKICVYDKLHIKTHLDEETGEKTSITLDVGPESFNPGDGPGGLPIQRTDDTQEHFPHRVSDPSGEQKQKLPSRRKKQQKRTFISQERDCVFGTDSLRLSGKRLKEQEEISSKNPARSPVTEIRTHLLSLKSELPDSPEPVTEINEDSVLIPPTAQPEKGVDTFLRRPNFTRATTVPLQTLSDSGSSQHLEHIPPKGSSELTTHDLKNIRFTSPVSLEAQGKKMTVSTDNLLVNKAISKSGQLPTSSNLEANISCSLNELTYNNLPANENQNLKEQNQTEKSLKSPSDTLDGRNENLQESEILSQPKSLSLEATSPLSAEKHSCTVPEGLLFPAEYYVRTTRSMSNCQRKVAVEAVIQSHLDVKKKGFKNKNKDASKNLNLSNEETDQSEIRMSGTCTGQPSSRTSQKLLSLTKVSSPAGPTEDNDLSRKAVAQAPGRRYTGKRKSACTPASDHCEPLLPTSSLSIVNRSKEEVTSHKYQHEKLFIQVKGKKSRHQKEDSLSWSNSAYLSLDDDAFTAPFHRDGMLSLKQLLSFLSITDFQLPDEDFGPLKLEKVKSCSEKPVEPFESKMFGERHLKEGSCIFPEELSPKRMDTEMEDLEEDLIVLPGKSHPKRPNSQSQHTKTGLSSSILLYTPLNTVAPDDNDRPTTDMCSPAFPILGTTPAFGPQGSYEKASTEVAGRTCCTPQLAHLKDSVCLASDTKQFDSSGSPAKPHTTLQVSGRQGQPTCDCDSVPPGTPPPIESFTFKENQLCRNTCQELHKHSVEQTETAELPASDSINPGNLQLVSELKNPSGSCSVDVSAMFWERAGCKEPCIITACEDVVSLWKALDAWQWEKLYTWHFAEVPVLQIVPVPDVYNLVCVALGNLEIREIRALFCSSDDESEKQVLLKSGNIKAVLGLTKRRLVSSSGTLSDQQVEVMTFAEDGGGKENQFLMPPEETILTFAEVQGMQEALLGTTIMNNIVIWNLKTGQLLKKMHIDDSYQASVCHKAYSEMGLLFIVLSHPCAKESESLRSPVFQLIVINPKTTLSVGVMLYCLPPGQAGRFLEGDVKDHCAAAILTSGTIAIWDLLLGQCTALLPPVSDQHWSFVKWSGTDSHLLAGQKDGNIFVYHYS
partner: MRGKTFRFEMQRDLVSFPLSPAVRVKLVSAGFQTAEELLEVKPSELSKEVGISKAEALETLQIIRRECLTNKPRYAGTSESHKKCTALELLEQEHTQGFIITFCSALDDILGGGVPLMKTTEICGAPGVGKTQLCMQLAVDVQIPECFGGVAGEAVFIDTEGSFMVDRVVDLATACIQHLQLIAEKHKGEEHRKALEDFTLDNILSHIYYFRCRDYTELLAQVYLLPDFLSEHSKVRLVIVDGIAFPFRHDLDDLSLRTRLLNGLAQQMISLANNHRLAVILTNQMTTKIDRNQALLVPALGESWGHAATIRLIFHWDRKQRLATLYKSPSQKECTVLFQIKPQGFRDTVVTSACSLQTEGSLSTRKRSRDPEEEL
B2: Partner and localizer of BRCA2 (Homo sapiens), Q86YC2 (parent)
chain: B1 chain
partner: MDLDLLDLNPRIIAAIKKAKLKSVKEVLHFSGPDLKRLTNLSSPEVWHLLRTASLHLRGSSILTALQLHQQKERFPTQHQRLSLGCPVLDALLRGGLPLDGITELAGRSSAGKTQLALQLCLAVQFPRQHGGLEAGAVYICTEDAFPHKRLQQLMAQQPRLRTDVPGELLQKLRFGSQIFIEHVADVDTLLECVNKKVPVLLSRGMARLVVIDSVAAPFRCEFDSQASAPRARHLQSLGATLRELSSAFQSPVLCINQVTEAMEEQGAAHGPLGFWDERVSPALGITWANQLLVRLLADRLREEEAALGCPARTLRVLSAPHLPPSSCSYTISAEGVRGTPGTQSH
B3: Partner and localizer of BRCA2 (Homo sapiens), Q86YC2 (parent)
chain: B1 chain

Variants of: B1
Conditions: with ra51c_human RAD51C

Row | Variant | effect of a mutation on the interaction
1 | T1030I | decreasing interaction

Variants of: B2
Conditions: with xrcc3_human XRCC3, O43542

Row | Variant | effect of a mutation on the interaction
2 | L939W | decreasing interaction

Variants of: B3
Conditions: with rad51_human RAD51, Q06609
Chain of rad51_human RAD51, Q06609 (Q06609 whole entry): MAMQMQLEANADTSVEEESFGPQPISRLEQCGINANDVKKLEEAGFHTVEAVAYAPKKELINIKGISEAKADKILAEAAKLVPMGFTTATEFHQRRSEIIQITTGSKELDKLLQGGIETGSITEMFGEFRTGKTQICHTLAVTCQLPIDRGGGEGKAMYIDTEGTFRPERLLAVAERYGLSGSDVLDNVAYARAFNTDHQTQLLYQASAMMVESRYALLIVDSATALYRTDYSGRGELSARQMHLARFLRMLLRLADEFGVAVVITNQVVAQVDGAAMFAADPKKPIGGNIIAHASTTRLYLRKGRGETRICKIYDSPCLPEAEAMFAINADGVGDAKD

Row | Variant | effect of a mutation on the interaction
3 | L939W | decreasing interaction
4 | T1030I | decreasing interaction
